# In EP2658867B1 (Avidbiotics Corp., dated 2018):
# Positions count from the first letter of the chain named.
# B1: soluble MICA generated by pKK46 (extended loop 5.1sp in loop 1) (designed binder)
# chain: HHHHHHEPHSLRYNLTVLSWDGSVQSGFLTEVHLDGQPFLRCDRQKCRAKPQGQWAEDVLGNKTWDRETRDLTGNGKDLRMTLAHIKDQKEGLHSLQEIRVCEIHEDNSTRSSQHFYYDGELFLSQNLETEEWTMPQSSRAQTLAMNVRNFLKEDAMKTKTHYHAMHADCLQELRRYLKSGVVLRRTVPPMVNVTSGGSGGGSVTRGDTFTQSSGGSGGGVTCRASGFYPWNITLSWRQDGVSLSHDTQQWGDVLPDGNGTYQTWVATRICQGEEQRFTCYMEHSGNHSTHPVPSGK
# B2: M13 phage pKK136 displaying MICA α3 domain with extended 5.1sp in loop 1 and extended 3.2sp in loop 3 (designed binder, not shown: large carriers)
# chain: TVPPMVNVTSGGSGGGSVTRGDTFTQSSGGSGGGVTCRASGFYPWNITLSWRQDGVSLSHDTQQWGDVLPDGNGTYQTWVATRISGGSGGGSTSRGDHPRTQSGGSGGGCYMEHSGNHSTHPVPSGK
# B3: M13 phage pKK139 displaying MICA α3 domain with extended 5.1sp in loop 1 and extended 5.1spNH in loop 3 (designed binder, not shown: large carriers)
# chain: B2 chain with T93V, S94T, H98T, P99F, R100T, T101Q, Q102S
# B4: M13 phage pKK138 displaying MICA α3 domain with extended 5.1sp in loop 1 and extended 5.3sp in loop 3 (designed binder, not shown: large carriers)
# chain: B2 chain with T93H, S94L, R95A, G96R, D97G, H98D, P99D, R100L, Q102Y
# B5: M13 phage pKK112 displaying MICA α3 domain with tight T-AMY (loop 1 from tendamistat) in loop 1 (designed binder, not shown: large carriers)
# chain: TVPPMVNYQSWRYSQCRASGFYPWNITLSWRQDGVSLSHDTQQWGDVLPDGNGTYQTWVATRICQGEEQRFTCYMEHSGNHSTHPVPSGK
# B6: M13 phage pKK103 displaying MICA α3 domain with extended loop 5.3sp in loop 1 (designed binder, not shown: large carriers)
# chain: TVPPMVNVTSGGSGGGSHLARGDDLTYSGGSGGGVTCRASGFYPWNITLSWRQDGVSLSHDTQQWGDVLPDGNGTYQTWVATRICQGEEQRFTCYMEHSGNHSTHPVPSGK
# B7: M13 phage pKK104 displaying MICA α3 domain with extended loop 3.2sp in loop 3 (designed binder, not shown: large carriers)
# chain: TVPPMVNVTRSEASEGNITVTCRASGFYPWNITLSWRQDGVSLSHDTQQWGDVLPDGNGTYQTWVATRISGGSGGGSTSRGDHPRTQSGGSGGGCYMEHSGNHSTHPVPSGK
# B8: M13 phage pKK105 displaying MICA α3 domain with extended loop 3.3sp in loop 3 (designed binder, not shown: large carriers)
# chain: B7 chain with T78R, S79V, R80P, G81R, D82G, H83D, P84S, R85D, T86L, Q87T
# B9: M13 phage pKK107 displaying MICA α3 domain with tight T-3.1 in loop 1 (designed binder, not shown: large carriers)
# chain: TVPPMVNTSRGDHPRTQCRASGFYPWNITLSWRQDGVSLSHDTQQWGDVLPDGNGTYQTWVATRICQGEEQRFTCYMEHSGNHSTHPVPSGK
# B10: M13 phage pKK111 displaying MICA α3 domain with tight T-5.3 in loop 1 (designed binder, not shown: large carriers)
# chain: B9 chain with T8H, S9L, R10A, G11R, D12G, H13D, P14D, R15L, Q17Y
# B11: M13 phage pKK109 displaying MICA α3 domain with tight T-3.3 in loop 1 (designed binder, not shown: large carriers)
# chain: B9 chain with T8R, S9V, R10P, G11R, D12G, H13D, P14S, R15D, T16L, Q17T
# B12: M13 phage pKK108 displaying MICA α3 domain with tight T-3.5 in loop 1 (designed binder)
# chain: B9 chain with T8G, H13S, P14L, R15I, T16M, Q17H
# notes: α3 amplified from pKK53; also called 1-T-3.5; not shown: M13 phage capsid protein pIII, C-terminal portion, fused at codon position 198
# B13: M13 phage pKK110 displaying MICA α3 domain with tight T-5.1 in loop 1 (designed binder, not shown: large carriers)
# chain: B9 chain with T8V, S9T, H13T, P14F, R15T, T16Q, Q17S
# B14: M13 phage pKK106 displaying wild type MICA α3 domain fused to pIII (other)
# chain: TVPPMVNVTRSEASEGNITVTCRASGFYPWNITLSWRQDGVSLSHDTQQWGDVLPDGNGTYQTWVATRICQGEEQRFTCYMEHSGNHSTHPVPSGK
# notes: also called WT; not shown: M13 phage capsid protein pIII, C-terminal portion, fused at codon position 198
# Biological target: T1, integrin αVβ3 (UniProt P06756 31-992; P05106 27-718)
# T1 construct: Coated on the ELISA plate
# Test: ELISA, integrin coated, anti-MICA-HRP
# Conditions: not given
# T1 sequence (P06756 31-992, chain 1 of 2): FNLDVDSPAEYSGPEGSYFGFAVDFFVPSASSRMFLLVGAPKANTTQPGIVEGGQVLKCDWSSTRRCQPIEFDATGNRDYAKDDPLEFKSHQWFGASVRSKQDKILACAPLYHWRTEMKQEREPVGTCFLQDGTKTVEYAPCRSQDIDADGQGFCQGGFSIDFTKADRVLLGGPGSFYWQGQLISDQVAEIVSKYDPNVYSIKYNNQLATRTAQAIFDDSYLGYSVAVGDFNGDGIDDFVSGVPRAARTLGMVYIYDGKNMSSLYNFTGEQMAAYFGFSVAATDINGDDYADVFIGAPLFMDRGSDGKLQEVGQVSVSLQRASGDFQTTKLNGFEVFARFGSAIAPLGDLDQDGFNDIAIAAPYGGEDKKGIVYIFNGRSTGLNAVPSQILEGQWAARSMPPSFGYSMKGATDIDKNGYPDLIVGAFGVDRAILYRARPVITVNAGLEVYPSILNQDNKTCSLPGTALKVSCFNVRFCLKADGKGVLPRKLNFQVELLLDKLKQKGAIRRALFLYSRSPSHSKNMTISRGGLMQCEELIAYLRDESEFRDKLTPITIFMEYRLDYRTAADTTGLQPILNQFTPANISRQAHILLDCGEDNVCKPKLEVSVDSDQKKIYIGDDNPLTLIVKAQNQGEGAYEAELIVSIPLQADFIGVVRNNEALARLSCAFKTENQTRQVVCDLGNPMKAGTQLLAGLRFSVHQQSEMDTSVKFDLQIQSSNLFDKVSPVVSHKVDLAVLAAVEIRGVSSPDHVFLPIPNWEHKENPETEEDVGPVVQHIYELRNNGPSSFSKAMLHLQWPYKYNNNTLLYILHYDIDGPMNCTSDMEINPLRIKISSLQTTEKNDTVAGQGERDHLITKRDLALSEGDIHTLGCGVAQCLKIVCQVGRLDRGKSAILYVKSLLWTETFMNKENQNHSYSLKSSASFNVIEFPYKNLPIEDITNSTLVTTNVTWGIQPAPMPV
# T1 sequence (P05106 27-718, chain 2 of 2): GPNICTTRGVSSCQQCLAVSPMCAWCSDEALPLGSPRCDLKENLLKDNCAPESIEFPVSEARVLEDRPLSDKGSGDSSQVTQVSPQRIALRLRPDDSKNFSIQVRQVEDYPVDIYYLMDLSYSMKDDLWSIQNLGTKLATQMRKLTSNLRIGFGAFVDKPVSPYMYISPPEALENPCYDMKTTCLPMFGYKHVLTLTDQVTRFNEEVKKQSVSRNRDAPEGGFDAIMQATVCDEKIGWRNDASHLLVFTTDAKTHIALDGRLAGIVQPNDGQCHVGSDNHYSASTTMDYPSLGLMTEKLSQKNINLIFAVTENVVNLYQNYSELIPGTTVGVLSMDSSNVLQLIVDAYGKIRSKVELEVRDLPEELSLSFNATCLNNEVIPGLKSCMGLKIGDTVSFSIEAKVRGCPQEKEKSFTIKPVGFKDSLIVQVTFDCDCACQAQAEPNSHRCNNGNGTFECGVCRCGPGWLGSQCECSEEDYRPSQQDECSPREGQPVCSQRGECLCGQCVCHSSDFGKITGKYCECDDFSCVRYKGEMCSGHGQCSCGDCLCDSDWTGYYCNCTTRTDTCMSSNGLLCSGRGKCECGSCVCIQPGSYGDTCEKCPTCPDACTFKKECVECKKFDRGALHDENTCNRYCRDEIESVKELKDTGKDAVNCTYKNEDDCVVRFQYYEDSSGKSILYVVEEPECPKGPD
Binder,signal [OD],signal/ng [signal/ng]
B1,0.384,9.2

# Biological target: T2, integrin αVβ5 (UniProt P06756 31-992; P18084 24-719)
# T2 construct: Coated on the ELISA plate
# Test: ELISA, integrin coated, anti-MICA-HRP
# Conditions: not given
# T2 sequence (P06756 31-992, chain 1 of 2): as the sequence (P06756 31-992, chain 1 of 2) above
# T2 sequence (P18084 24-719, chain 2 of 2): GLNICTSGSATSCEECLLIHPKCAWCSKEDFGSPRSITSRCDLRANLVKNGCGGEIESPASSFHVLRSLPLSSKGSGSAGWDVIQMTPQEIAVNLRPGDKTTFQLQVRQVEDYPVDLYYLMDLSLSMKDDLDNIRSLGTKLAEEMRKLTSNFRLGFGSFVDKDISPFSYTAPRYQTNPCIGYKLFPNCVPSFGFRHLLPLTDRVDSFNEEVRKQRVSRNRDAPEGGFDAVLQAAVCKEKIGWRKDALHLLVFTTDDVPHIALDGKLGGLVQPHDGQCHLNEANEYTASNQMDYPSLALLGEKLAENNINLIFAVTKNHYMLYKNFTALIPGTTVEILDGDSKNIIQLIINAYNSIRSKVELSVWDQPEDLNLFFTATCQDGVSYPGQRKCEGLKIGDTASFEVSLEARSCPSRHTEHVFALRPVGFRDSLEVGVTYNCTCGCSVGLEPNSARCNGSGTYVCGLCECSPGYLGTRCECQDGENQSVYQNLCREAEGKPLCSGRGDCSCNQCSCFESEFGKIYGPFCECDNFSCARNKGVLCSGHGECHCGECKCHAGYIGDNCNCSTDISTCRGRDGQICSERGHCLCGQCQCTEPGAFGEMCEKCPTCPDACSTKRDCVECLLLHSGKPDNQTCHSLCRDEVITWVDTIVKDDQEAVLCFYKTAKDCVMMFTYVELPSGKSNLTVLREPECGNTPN
Binder,signal [OD],signal/ng [signal/ng]
B1,1.06,25.5

# Biological target: T1, integrin αVβ3
# Test: ELISA, integrin coated, anti-MICA-HRP
# Conditions: not given
# Remark: another data set of the same source
Binder,signal [OD],signal/ng [signal/ng]
B1,0.467,9.42

# Biological target: T2, integrin αVβ5
# Test: ELISA, integrin coated, anti-MICA-HRP
# Conditions: not given
# Remark: another data set of the same source
Binder,signal [OD],signal/ng [signal/ng]
B1,0.66,13.3

# Biological target: T1, integrin αVβ3
# Test: phage ELISA, integrin coated, anti-M13-HRP
# Conditions: not given
row,Binder,signal [OD]
1,B2,2.46
2,B3,2.48
3,B4,0.886
4,B5,0.46
5,B6,0.688
6,B7,0.791
7,B8,1.33
8,B9,0.999
9,B10,0.707
10,B11,0.23
11,B12,-0.09
12,B13,1.49
13,B14,0

# Same assay, conditions: record 2
row,Binder,signal [OD]
1,B6,0.587

# Biological target: T2, integrin αVβ5
# Test: phage ELISA, integrin coated, anti-M13-HRP
# Conditions: not given
row,Binder,signal [OD]
1,B2,4.28
2,B3,5.36
3,B4,2.75
4,B5,0.515
5,B6,0.491
6,B7,1.12
7,B8,1.11
8,B9,1.49
9,B10,0.657
10,B11,0.167
11,B12,-0.204
12,B13,2.56
13,B14,0

# Same assay, conditions: record 2
row,Binder,signal [OD]
1,B6,0.814
